Results published in US20240100159A1, “USE OF IL-7R-ALPHA-GAMMA AGONIST PEPTIDES IN CELL MANUFACTURING” (MEDIKINE, INC., priority 2022, published 2024).

Molecular target: T1, hu-IL-7Rα subunit (human, UniProt P16871 21-239, limits assumed)
T1 construct: also called human interleukin-7 receptor subunit α; CD127
T1 sequence (looked up): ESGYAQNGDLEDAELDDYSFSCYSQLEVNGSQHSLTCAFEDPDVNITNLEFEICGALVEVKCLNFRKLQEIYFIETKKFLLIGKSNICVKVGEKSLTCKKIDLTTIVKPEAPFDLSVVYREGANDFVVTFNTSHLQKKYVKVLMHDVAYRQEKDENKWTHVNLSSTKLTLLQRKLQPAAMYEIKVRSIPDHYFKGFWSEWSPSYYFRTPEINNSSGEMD
Assay: phage ELISA competition assay

B1: SEQ ID NO 112 (peptide)
peptide: SLTVPWCTLDPGSMQCAWLQNR
notes: also called IL-7Rα ligand
IC50: < 10 µM
